Source: PMC5659210, “Extending the biocatalytic scope of regiocomplementary flavin-dependent halogenase enzymes” (Chemical Science, 2015)

Assays:
Experiment in all cases: Michaelis-Menten chlorination assay, HPLC, Fre-coupled
Format in all cases: biochemical, Pseudomonas fluorescens
Conditions in all cases: Fre in excess, 30 °C
[1] = substrate: Nc1ccccc1C(=O)O
Source text: (§1) Michaelis-Menten chlorination assay, HPLC, Fre-coupled on PrnA

[2] = substrate: NC(=O)c1ccccc1N
Source text: as §1

[3] = substrate: N[C@@H](Cc1c[nH]c2ccccc12)C(=O)O
Source text: as §1

[4] = substrate: Nc1ccccc1C(=O)C[C@H](N)C(=O)O
Source text: as §1

B1: PrnA (Pseudomonas fluorescens) (protein)
chain: MNKPIKNIVIVGGGTAGWMAASYLVRALQQQANITLIESAAIPRIGVGEATIPSLQKVFFDFLGIPEREWMPQVNGAFKAAIKFVNWRKSPDPSRDDHFYHLFGNVPNCDGVPLTHYWLRKREQGFQQPMEYACYPQPGALDGKLAPCLSDGTRQMSHAWHFDAHLVADFLKRWAVERGVNRVVDEVVDVRLNNRGYISNLLTKEGRTLEADLFIDCSGMRGLLINQALKEPFIDMSDYLLCDSAVASAVPNDDARDGVEPYTSSIAMNSGWTWKIPMLGRFGSGYVFSSHFTSRDQATADFLKLWGLSDNQPLNQIKFRVGRNKRAWVNNCVSIGLSSCFLEPLESTGIYFIYAALYQLVKHFPDTSFDPRLSDAFNAEIVHMFDDCRDFVQAHYFTTSRDDTPFWLANRHDLRLSDAIKEKVQRYKAGLPLTTTSFDDSTYYETFDYEFKNFWLNGNYYCIFAGLGMLPDRSLPLLQHRPESIEKAEAMFASIRREAERLRTSLPTNYDYLRSLRDGDAGLSRGQRGPKLAAQESL
notes: full-length, pET28a (NdeI/NotI), expressed in E. coli Arctic Express, HisTrap purified
Q: For B1, which Km [1] is on record?
A: Its Km is 3161 ± 986 µM.

Q: What about the kcat [1] of the same protein?
A: The kcat was 0.0085 ± 0.00117 s⁻¹.

Q: And the kcat/Km [1]?
A: The kcat/Km was 2.67 ± 0.833 M⁻¹ s⁻¹.

Q: And the Km [2]?
A: Its Km is 3267 ± 491 µM.

Q: And the kcat [2]?
A: The kcat was 0.035 ± 0.00167 s⁻¹.

Q: And the kcat/Km [2]?
A: The kcat/Km was 11.7 ± 1.67 M⁻¹ s⁻¹.

Q: And the Km [3]?
A: Its Km is 0.7 ± 0.1 µM.

Q: What about the kcat [3] of the same protein?
A: The kcat was 0.0183 ± 0.000833 s⁻¹.

Q: And the kcat/Km [3]?
A: Its kcat/Km is 28300 ± 3330 M⁻¹ s⁻¹.

Q: What about the Km [4] of the same protein?
A: The Km was 19.0 ± 2.2 µM.

Q: And the kcat [4]?
A: The kcat was 0.0617 ± 0.00167 s⁻¹.

Q: What about the kcat/Km [4] of the same protein?
A: The kcat/Km was 3330 ± 167 M⁻¹ s⁻¹.
